Substitutions are numbered along the chain they refer to.
Molecular target: T1, full length human Tau (not phosphorylated) (human, UniProt P10636 1-758)
T1 construct: Human Tau isoform F, 441 residues; also called full length tau; Tau protein
Test: Western blot on recombinant Tau, all antibodies 1 ug/ml

T1 sequence (P10636 other isoform, or with tags, fused parts or gaps limits assumed): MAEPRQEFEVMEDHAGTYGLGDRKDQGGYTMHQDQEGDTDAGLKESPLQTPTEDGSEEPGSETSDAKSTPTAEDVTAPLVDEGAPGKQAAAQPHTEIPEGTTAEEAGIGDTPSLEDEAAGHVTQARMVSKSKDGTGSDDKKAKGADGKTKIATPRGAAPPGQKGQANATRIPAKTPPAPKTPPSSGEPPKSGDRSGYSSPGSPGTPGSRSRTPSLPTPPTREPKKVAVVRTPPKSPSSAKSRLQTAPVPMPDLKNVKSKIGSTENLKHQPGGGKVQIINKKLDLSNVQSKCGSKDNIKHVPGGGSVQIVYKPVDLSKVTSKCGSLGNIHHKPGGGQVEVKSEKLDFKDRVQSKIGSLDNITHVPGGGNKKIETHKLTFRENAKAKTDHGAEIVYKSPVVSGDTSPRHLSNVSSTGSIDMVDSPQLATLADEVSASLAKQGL

B1: VH32/VL21 (antibody, V domains shown)
VH: EVQVLESGGGLVQPGGSLRLSCAVSGFSLSSNAINWVRQAPGKGLEWVGYIAVSGNTYYASWAKGRFTISRDNSKNTVYLQMNSLRAEDTAVYYCGKSNIWGQGTLVTVSS
VL: AQVMTQSPSSLSASVGDRVTITCRSSQSVRTNKLAWFQQKPGQPPKRLIYSASTLDFGVPSRFSGSGSGTEFTLTISSLQPEDFATYYCLGYFDSSADIVAFGGGTKVEIK
- binding result: no binding (tested: 1 ug/ml)

B2: VH32/VL22 (antibody, V domains shown)
VH: B1 VH
VL: B1 VL with K33R, F57Y
- binding result: no binding (tested: 1 ug/ml)
